For one substance, cleavage of TFPI (1 μg) by elastase (0.8 μg/mL) with Boophilin 0-3 μM, SDS-PAGE (Fig 4D) results are on record in PMC4706430.

In the experiment the target is Elastase (human neutrophil elastase) (human) (UniProt P08246).
Chain of Elastase (human neutrophil elastase) (human) (P08246 30-267): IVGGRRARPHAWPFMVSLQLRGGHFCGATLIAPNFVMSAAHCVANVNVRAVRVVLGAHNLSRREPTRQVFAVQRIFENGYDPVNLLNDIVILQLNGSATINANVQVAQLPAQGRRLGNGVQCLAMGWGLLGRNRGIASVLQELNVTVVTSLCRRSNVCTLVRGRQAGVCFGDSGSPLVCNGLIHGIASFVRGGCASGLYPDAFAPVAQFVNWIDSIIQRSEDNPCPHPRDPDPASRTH

Boophilin (natural protein) registered a cleavage of TFPI (1 μg) by elastase (0.8 μg/mL) with Boophilin 0-3 μM, SDS-PAGE (Fig 4D) of 20%.
